From CN116745314A (VIR BIOTECHNOLOGY CO LTD, dated 2023)

Biological target: purified SARS-CoV-2 RBD (limits of the construct not stated) (SARS-CoV-2, UniProt P0DTC2 331-550)
Test: told in the legend of the ELISA figure (Fig. 38)

B1: S309-14 (S309 with VH W105F mutation) (antibody, V domains shown)
VH: not shown
VL: EIVLTQSPGTLSLSPGERATLSCRASQTVSSTSLAWYQQKPGQAPRLLIYGASSRATGIPDRFSGSGSGTDFTLTISRLEPEDFAVYYCQQHDTSLTFGGGTKVEIK
B1: binds.
